Experimental data reported in patent publication US8889621B2, “Inhibiting binding of FGF23 to the binary FGFR-Klotho complex for the treatment of hypophosphatemia” (New York University, priority 2009, dated 2014).
Entries after “also recorded” stand apart in the source; their conditions may differ. Peptide text beside a SMILES is read from it.

B1: FGF23^180-251: 72-amino acid C-terminal tail of human FGF23 (S180 to I251), expressed in E. coli (protein, listed as Homo sapiens)
chain: SAEDDSERDPLNVLKPRARMTPAPASCSQELPSAEDNSPMASDPLGVVRGGRVNTHAGGTGPEGCRPFAKFI

Assays:
[1] = tested on: tyrosine phosphorylation of FRS2α and downstream activation of MAP kinase cascade; experiment: Phosphorylation of FRS2α and 44/42 MAP kinase in HEK293-Klotho cells; assay type: cell-based; conditions: for inhibition of FGF23-induced phosphorylation of FRS2α and MAP kinase activation: FGF23^28-251 1 nM, 10 min
Experimental: Subconfluent HEK293-Klotho cells (Kurosu et al., “Regulation of Fibroblast Growth Factor-23 Signaling by Klotho,” J Biol Chem 281(10):6120-6123 (2006), which is hereby incorporated by reference in its entirety) were serum starved for 16 h and then stimulated for 10 min with either FGF23^28-251 (0.33 to 10 nM) or FGF23^180-251 (0.76 to 76.3 nM). In parallel experiments, cells were stimulated with FGF23^28-251 (1 nM) alone or with FGF23^28-251 (1 nM) mixed with increasing concentrations of either FGF23^180-251 (0.76 to 76.3 nM) or FGF23^180-205 (0.1 to 10 μM). Cell stimulation with FGF2 (2.9 nM) alone or FGF2 (2.9 nM) mixed with increasing concentrations of FGF23^180-251 (0.76 to 76.3 nM) served as controls. Similarly, subconfluent cells of a CHO cell line stably expressing Klotho (Imura et al., “Secreted Klotho Protein in Sera and CSF: Implication for Post-translational Cleavage in Release of Klotho Protein from Cell Membrane,” FEBS Lett 565(1-3):143-147 (2004), which is hereby incorporated by reference in its entirety) were treated with either FGF23^28-251 (0.067 to 20 nM) or FGF23^28-200 (0.04 to 12 nM).
In a separate experiment, the biological activity of the bacterially expressed FGF23^28-251 protein was compared to that of FGF23^25-251 expressed in the mouse myeloma cell line NS0 (R&D Systems). Subconfluent HEK293-Klotho cells were serum starved, and then treated with either of the two FGF23 proteins.
After stimulation, the cells were lysed (Kurosu et al, “Suppression of Aging in Mice by the Hormone Klotho,” Science 309(5742):1829-1833 (2005), which is hereby incorporated by reference in its entirety), and cellular proteins were resolved on SDS-polyacrylamide gels, transferred to nitrocellulose membranes, and the protein blots were probed with antibodies to phosphorylated FGF receptor substrate-2α (FRS2α), phosphorylated 44/42 MAP kinase and non-phosphorylated 44/42 MAP kinase, and Klotho. Except for the anti-Klotho antibody (Kato et al., “Establishment of the Anti-Klotho Monoclonal Antibodies and Detection of Klotho Protein in Kidneys,” Biochemical Biophysical Res Communications 267(2):597-602 (2000), which is hereby incorporated by reference in its entirety), all antibodies were from Cell Signaling Technology.

Hyp mice = experiment: Urine and serum phosphate in Hyp mice after IP injection; assay type: in vivo, mouse; conditions: vs vehicle; for serum phosphate: IP, FGF23^180-251 1 mg or FGF23^180-205 860 μg
Description: The anti-phosphaturic activity of FGF23 C-terminal peptides was examined in normal Sprague-Dawley rats and in Hyp mice, a mouse model of human X-linked hypophosphatemia (XLH) (Beck et al., “Pex/PEX Tissue Distribution and Evidence for a Deletion in the 3′ Region of the Pex Gene in X-linked Hypophosphatemic Mice,” J Clin Invest 99(6):1200-1209 (1997), Eicher et al., “Hypophosphatemia: Mouse Model for Human Familial Hypophosphatemic (Vitamin D-resistant) Rickets,” Proc Natl Acad Sci USA 73(12):4667-4671 […], Strom et al., “Pex Gene Deletions in Gy and Hyp Mice Provide Mouse Models for X-linked Hypophosphatemia,” Hum Mol Genet. 6(2):165-171 (1997), which are hereby incorporated by reference in their entirety). The animals were fed a complete, fixed formula diet containing 0.94% phosphate. Anesthetized rats (220-250 g body weight) were administered IV either FGF23^28-251 (0.1 μg kg body weight^−1) or FGF23^180-251 (0.1 μg kg body weight^−1) or vehicle. Before and 3 h after the injection, blood was drawn from the carotid artery and urine was collected through bladder catheterization. Plasma and urine chemistry of animals were analyzed using Vitros Chemistry Analyzer (Ortho-Clinical Diagnosis). 10- to 15-week old Hyp mice were fasted for 8-12 h before administering IP either FGF23^180-251 (1 mg) or FGF23^180-205 (860 μg) or vehicle. Before and 2 h, 4 h, 8 h, and 24 h after the injection, urine and serum samples were collected. Phosphate concentrations in urine and serum were determined using Phosphorus Liqui-UV Test (Stanbio Laboratory), and urine creatinine levels were measured using DetectX™ Urinary Creatinine Detection Kit (LuminosAssays).

| Molecule | inhibition of FGF23-induced phosphorylation of FRS2α and MAP kinase activation [1] | serum phosphate (Hyp mice) | inhibition of FGF2-induced phosphorylation of FRS2α and MAP kinase activation ([1]; FGF2 2.9 nM) | FGFR activation (FRS2α and 44/42 MAP kinase phosphorylation as readouts) ([1]; peptide alone / with FGF23) | renal phosphate excretion (Hyp mice; IP 1 mg) |
| --- | --- | --- | --- | --- | --- |
| CSCC[C@H](NC(=O)[C@H](CCCNC(=N)N)NC(=O)[C@H](C)NC(=O)[C@H](CCCNC(=N)N)NC(=O)[C@@H]1CCCN1C(=O)[C@H](CCCCN)NC(=O)[C@H](CC(C)C)NC(=O)[C@@H](NC(=O)[C@H](CC(N)=O)NC(=O)[C@H](CC(C)C)NC(=O)[C@@H]1CCCN1C(=O)[C@H](CC(=O)O)NC(=O)[C@H](CCCNC(=N)N)NC(=O)[C@H](CCC(=O)O)NC(=O)[C@H](CO)NC(=O)[C@H](CC(=O)O)NC(=O)[C@H](CC(=O)O)NC(=O)[C@H](CCC(=O)O)NC(=O)[C@H](C)NC(=O)[C@@H](N)CO)C(C)C)C(=O)N[C@H](C(=O)N1CCC[C@H]1C(=O)N[C@@H](C)C(=O)N1CCC[C@H]1C(=O)N[C@@H](C)C(=O)N[C@@H](CO)C(=O)O)[C@@H](C)O [FGF23^180-205] (H-SAEDDSERDPLNVLKPRARMTPAPAS-OH; N-terminus and C-terminus assumed) | inhibited, in a dose-dependent fashion | increase |  |  |  |
| B1 | inhibited, in a dose-dependent fashion | elevated | failed to inhibit | had no activity alone; also recorded: functioned as an antagonist | decrease |
